According to the supplement of paper PMC12042874:
± gives the uncertainty stated by the source.

experiment: amyloid nucleation score (Sup35N fusion, yeast selection) (log enrichment); library NNK1; higher = more nucleation; inactive = no reads after selection
In short: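 Random libraries were run with three technical output replicates. In each, psi-negative yeast expressing Sup35N fused to peptides of 20 random codons were induced 24 hours with 100 μM copper sulfate and grown 7 days at 30°C on medium lacking adenine and uracil, and input and output plasmid inserts were Illumina-sequenced. The nucleation score is the DiMSum log enrichment of output over input reads, centred on the mode score of non-aggregating sequences, and sequences under 100 input reads were excluded.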

Substance	amyloid nucleation score
LIELRIWLLHLPMYGVLESI	-0.758 ± 0.39
YLQLSRAVQRVLTRRWSSI	0.31 ± 0.52
MILTTPAAERLLYYILPLRD	-0.616 ± 0.81
VSDFGLGHGKQWRCRRQISL	0.685 ± 0.79
VDDICIIVANSAGRDEQMSM	1.16 ± 0.56
CSWAASY	-0.689 ± 1.9
VLPMTGYSRLRPIYRFMFFD	0.273 ± 0.44
LDTRSRSYVWSDLLRKAKAK	0.795 ± 0.6
WSMLSADSRISYYIYQCSLF	2.31 ± 0.32
ISTAVAIAGQQARNWGAHLR	-0.196 ± 0.46
FPFAYGVSESQSSVIHVLDV	-0.063 ± 0.26
PMIPKFMSERCQLIWWM	0.961 ± 0.7
RRLPA	-0.091 ± 0.9
YNCWSSLNFYNPIFLRTLLG	3.46 ± 0.21
NYCYSFIKYPLEPVKFLSAV	-0.239 ± 1.1
NIILSYLYFRTARVISEDRR	4.7 ± 0.081
FSMIMSLDVL	-0.397 ± 0.4
VSPLWSCFTSGVPTDCWSLG	0.275 ± 1.2
SCWPCQ	-1.09 ± 2.4
NSRAGLYVISSSYCRSMLDR	1.48 ± 0.39
DVMRYWVMRVVMPAKFKKAY	-0.244 ± 1.1
GFWAKSPLAGHSYKGYQLWA	1.62 ± 0.57
QSVQHFGGYTKTLGASMGTF	-0.797 ± 2.4
HSDFQDFMTDFGHDAFFKDW	0.096 ± 0.4
TQFEFFWVPKRHSMVHNCMN	-0.337 ± 0.31

Substance	amyloid nucleation score
HCPKAVGINEWPEMRFYVNL	-0.05 ± 0.96
VFIIRRDLCWRTSFCLQQEL	0.965 ± 0.18
NMIKYVTLKMRL	0.328 ± 0.6
YLASREDDINMDASLLSTHA	1.41 ± 0.66
QCWEWIR	-0.564 ± 0.84
KGLGRF	-0.788 ± 0.74
FEVSGMCRVQVVTYNFFSSS	6.99 ± 0.088
KLSGFKFEVTCDGHEFWGHP	1.08 ± 0.54
HVLTQRRRMSFTVTRYHKRI	1.1 ± 0.52
NGYRNMSRREQTCLR	-0.055 ± 0.36
HFFNVYGSNMVISSWDSRCE	6.23 ± 0.076
WNLATMVADRSPRNKLWTRP	0.397 ± 0.97
AYCRTNTNLRVLRIWNK	-0.611 ± 0.53
HLRNLKDFNVQPF	0.635 ± 1.2
AVPRAFIQKCSSITLSVYPM	-0.504 ± 0.99
TFAFISLDMVWLASAH	-0.051 ± 0.26
TCNNRSSSCR	1.1 ± 0.61
GGRLTRQRIVSVLLYVGVAG	0.077 ± 0.69
ILGTIYDIMQNGDIHRFLAY	-0.834 ± 1.2
FVGEN	0.281 ± 0.52
CDSTVMRGLYCGRVVYSLFV	0.721 ± 0.47
SFSCSVVLNRILMGIIYTCG	-0.836 ± 0.55
KVLSIRWECPLECFALQSYV	0.042 ± 0.32
SQMTDYVFTL	0.848 ± 0.85
DKAFLWQFEELVAA	-0.331 ± 0.72

Substance	amyloid nucleation score
LFLFLRMLTFVTCLIMRLRV	-1.73 ± 2.4
NILCTLPSIGILSAI	-0.249 ± 0.37
GRSCFGEHILNTPAISCNIT	-0.288 ± 0.35
RFTNIFAKNRLCRLDMRRNT	-0.211 ± 0.56
MVVYFNLPAVMLIDCMMSAI	0.708 ± 0.62
TWQAWVGCWQYQRMGTEL	0.256 ± 0.58
MYYLRHF	inactive
CNMKNDLTRGNSRFCNLCCN	0.85 ± 0.53
NLHNRTCWCMYLFDTSWS	0 ± 0.29
NMWGVGDVTGIF	1.62 ± 0.59
IMKRCCGESMMPDAGWSGSA	-0.401 ± 1
WLNHKRIVINTQLMLYSPGC	4.68 ± 0.11
FRRMVTVNEAWHHRKAGSAN	1.47 ± 0.65
GIEKLHDRITSLIFLSMGRR	1.8 ± 0.19
GEHSLSIICCVLCTVGDGPN	7.611 ± 0.058
HHKPRPNIQFFRYSCKERAS	0.035 ± 1
WELARVDCNWFSHFWHAYMR	inactive
VTFFHFSQGR	4.79 ± 0.057
FNGGNTFVCVSLDTCWNGWY	7.54 ± 0.085
PNIKLSDRLGIIRREIWMVV	0.54 ± 0.39
ILELGGCLVYYRGN	0.087 ± 0.69
DRVLAVVYAAFAGFRRCMRR	inactive
YKGVGPIVIFIQWVYITVNN	4.1 ± 0.11
LVQESRHGLIRIRRVLLRIS	-0.252 ± 0.52
VSFLASMLRIGMCLPKQVMW	0.183 ± 0.8

Substance	amyloid nucleation score
RLLFLFVHVSYGI	0.014 ± 0.47
VVSYWTHYPNKSLSWASWAA	-0.671 ± 1.2
NLFTDVIHYMVAFLLVYYII	0.682 ± 0.49
CRNWKWSRRFYYGERNGGRL	0.416 ± 0.81
SMFGFTYIVGRMDGSIGWSL	0.647 ± 0.22
INDCYFMWGNLFCYVCVMLL	1.66 ± 0.46
LESRFRKMFPRVVRDTWGRG	-0.628 ± 1.7
HCPELLLPPSKCTIINGNDK	1.52 ± 0.38
AVWLVQSHPN	0.499 ± 0.58
NRECYYRPGNALNHGFFQIL	0.479 ± 1.2
SLVTDCYVPGFLYAMVIHAG	1.01 ± 0.45
MILFSYNG	1.7 ± 0.58
RFVCQPNRWFHNKRGVGRET	0.653 ± 0.64
GKRIYPWVLNRSH	-0.209 ± 0.28
VHNNCRWFAGKFPLSRVVLR	0.553 ± 1.2
SSVLVLHYRTSG	2.58 ± 0.09
PNPWRLRWLLALDMNLVGLQ	0.376 ± 1.1
REYNSYLLGVGHNLQLRSYI	inactive
TDSILKRYGMSFDFWRSWRN	0.76 ± 0.23
FAYGI	-0.633 ± 0.62
LKRVQCNSDRAMWCVALVLT	0.314 ± 0.59
SRCRNYYKVHVL	-1.17 ± 1.7
LWFLIFSSKADAKVDRRILL	0.041 ± 0.47
TCLTY	-0.846 ± 2.4
SACNLPACRSNKLAGRGRVM	0.408 ± 0.42

Substance	amyloid nucleation score
TNIALLV	0.847 ± 0.42
DWNEEACV	0.432 ± 0.57
RYFNGYITGNLNSASNARSS	1.81 ± 0.18
QNMWIHCWCGRGGMMTREPG	4.73 ± 0.052
LLSRFRNCNKFDVRQSLRQN	5.328 ± 0.051
RLGHDRIFSIRNSQS	-0.287 ± 0.58
LSTYTMLF	-0.168 ± 0.28
LRSKFRCLSILVRMVIIDCF	0.457 ± 0.62
ICWNHTTVGFGMIMVVYYL	1.95 ± 0.091
KETSVSLHEDGIYCGFITSN	0.187 ± 0.28
KVPYLVDYISLVFFVFKVLF	-0.388 ± 0.34
NYREGVVIILNNPDYCRRER	6.36 ± 0.091
MTKFCID	0.965 ± 0.66
SMWKWDQKGKDNGTKNNKRL	-0.939 ± 0.8
WNNVSCIELSSVSWNPDEVG	-0.302 ± 0.3
CVFSVRYALDRWDPTKCEVG	0.325 ± 0.43
VIMPGRYVNLAHRLDACSVH	inactive
IYQQIYN	-0.807 ± 2.4
RVGNNLNFM	-0.915 ± 0.3
VRNKMGSRSYSTS	-1.65 ± 2.7
PFQECFLRKVYWIIWRSRPK	0.255 ± 1.2
LGNCTGRRHV	2.42 ± 0.36
CEEKCSHNVGTY	0.458 ± 0.55
KWNLGYIYMYRATIK	1.44 ± 0.84
SRNNCSNRRDYHGIYSMRIS	0.513 ± 0.79

Substance	amyloid nucleation score
SGQPMIPGTCDNWNWRDYFT	6.04 ± 0.09
TFSFFDRVLSLFLN	-0.179 ± 0.44
IFGKTFTGYMVRFGVVHDLA	0.358 ± 0.41
VVSYISPATLRTLKLEKGLS	0.029 ± 0.76
KHSGFQTCVNYLD	-0.194 ± 0.42
LQGSVIYLNIKSLGEGVWLF	3.44 ± 0.17
LFVVFHALTIFYP	-0.437 ± 1.2
WEVRGHPSGLMEVRDLGVRF	0.249 ± 0.59
MSSPMRRDAKL	2.67 ± 0.14
YLTSANTSFTFESWWCL	2.93 ± 0.22
CKVTSGDIQTYGVLGPQRPA	-1.05 ± 1.1
TFGDWHKLRWRRSQPKCWSG	0.299 ± 0.36
CCPWEEHGICNEWRHRGSGT	-0.199 ± 0.46
CSYRWVELLCSC	3.93 ± 0.11
HYSRDSLVVWYI	-0.228 ± 0.56
LFLWDVFGQLAFVRVGTICW	1.14 ± 0.56
RLCVVRDRFIGPIRRAFLHP	inactive
HVTMKMIASSTMLDQHSWAR	-0.065 ± 0.32
YGNFKVGFFVIRAWNWLNLI	0.319 ± 1.2
DDRLLCI	-1.85 ± 2.1
FRTHVGSDCGL	-0.026 ± 1
QYSGYNRRDDSFPSWGCLLT	inactive
LGATGIGVYTVGHTFKS	-0.382 ± 0.44
GKCVTWQASCLQCSKSNWYQ	0.995 ± 0.81
HFSGYMFCNPLTSGIVNATW	6.404 ± 0.045

Substance	amyloid nucleation score
PWDSHSHHSTNRQLRFSSSG	-0.397 ± 0.6
YSSWVKLASLVDRDVPQYDW	inactive
SVWDGFSLRYPSLVYLRCGS	-0.634 ± 0.71
LLVSGVRSRKTQRWSFRACS	0.634 ± 0.7
NSGEEYVRVEGNCAFKSLSC	0.416 ± 0.15
RLVLNCRYNYCSREFVFYAV	0.292 ± 0.35
RLVTYPSVLSSVSEGSGRGG	1.05 ± 0.66
SVILIGRRDDHASSIRVIGS	-0.752 ± 0.69
QKYPSWINFPYF	-0.935 ± 0.97
RGFWLERCSWTF	-0.003 ± 0.37
EGIIYS	-0.692 ± 1.1
DRYSNTTFNHIA	0.779 ± 0.47
LLNLHGSLMYLPSDLLGSHS	0.156 ± 0.56
ARATQAEYRIERRGRFCILS	0.21 ± 0.38
RHSLIFDRTGRGYGARVPVE	inactive
SWHLDWFTYPFNKSD	inactive
GLSLIA	0.983 ± 0.76
LEYENCHCIILYLKHAQYLL	inactive
DSFARYVGVLKRLARLSTYR	0.568 ± 0.72
NSCFQSSIYVTSYTWECSP	inactive
